One data set addresses T1, MCL-1 (Homo sapiens, UniProt Q07820).
T1 construct: performed in lysates of HeLa cells transfected with mRNAs encoding SQT-BH3 constructs; endogenous in cells; host or cells: HeLa
Nature of the data set: Co-immunoprecipitation in lysates of transfected HeLa cells. It counts as binding. Conditions: lysates of HeLa cells transfected with mRNAs.

For another data set, the system named is systemic HEL xenografts. Nature of the data set: Systemic HEL xenografts in SCID mice (AML model). Type of data set: in vivo. As to the method: (§1) LNPs comprising the cationic lipid MC3 were tested using the optimal percentage of PEG-lipid and optimal PEG length (1.5% DSPE, C18, as described in Example 8), for in vivo targeted delivery of SQT-PUMA-BH3 in two different in vivo models of acute myeloid leukemia (AML). One model used systemic TF1a xenografts in SCID mice. The other model used systemic HEL xenografts in SCID mice. Each of these models uses a human erythroleukemia cell line. The HEL erythroleukia cell line is described in, for example, Martin, P. and Papayannopoulou, T. (1982) Science 216:1233-1235. The TF1 erythroleukmia cell line (from which TF1a is derived) is described in, for example, Kitamura, T. et al. (1989) J. Cell. Physiol. 140:323-334. Unless otherwise noted, mRNAs were fully modified with N1-methlypseudouridine to avoid stimulating an innate immune response to said mRNAs when administered in vivo.
In a second set of experiments, HEL cells stably expressing luciferase (HEL-luc cells) were implanted systemically in SCID mice. Tumor growth was measured by whole body bioluminescent imaging (BLI) in anaesthetized animals following SC injection of 150 mg/kg D-Luciferin, in an imaging chamber (Spectrum CT). […] Mice were dosed intravenously at days 28 and 36 and tumor burden was assessed by BLI on days 33, 36, 40 and 43.

A further data set addresses T2, BCL-2 (Homo sapiens, UniProt P10415).
T2 construct: endogenous in cells; host or cells: cells transfected with SQT-BH3 mRNA (HeLa by context)
The experiment in a line: Co-immunoprecipitation after mRNA transfection. It counts as binding. The settings on record: within two hours after mRNA transfection.

The test system of data set [1] is Hep3B cells. Nature of the data set: Cell death by YOYO-3 with MC3-formulated LNPs. Type of data set: cell-based. Conditions: relatively high concentration. As to the method: The efficacy of mRNAs encoding SQT-BH3 constructs in inducing cell death was tested both in hepatocellular carcinoma cell lines as well as in primary hepatocytes using lipid nanoparticle (LNP)-formulated constructs. Hep3B cells were treated with varying doses (0.78 ng to 50 ng) of MC3-formulated LNPs in the presence of YOYO-3 (Life Technologies), a DNA dye that is taken up preferentially by dead cells that is used to measure the extent of cell death. MC3 lipid nanoparticles included MC3 50%, DSPC 10%, Cholesterol 38.5%, PEG-DMG 1.5%, N:P ˜5.5.

Another data set relates to systemic TF1a xenografts. Nature of the data set: Systemic TF1a xenografts in SCID mice (AML model). It counts as in vivo. As for the experimental part: as §1
In a first set of experiments, TF1a cells stably expressing luciferase (TF1α-luc cells) were implanted systemically in SCID mice. Tumor growth was measured by whole body bioluminescent imaging (BLI) in anaesthetized animals following SC injection of 150 mg/kg D-Luciferin, in an imaging chamber (Spectrum CT). Animals showing an increasing tumor burden at day 12 post-cell implantation were recruited for treatment. Animals were randomized into four study groups, as follows: PBS IV (Group 1), cytarabine at 2 mg/kg three times per week (Group 2), LNPs containing mRNA encoding Green Fluorescent Protein (GFP) at 3 mg/kg one time per week (Group 3) and LNPs containing mRNA encoding SQT-PUMA-BH3 (comprising a miR122 binding site) at 3 mg/kg one time per week. Mice were dosed intravenously for four weeks.

In data set [2] the test system is human hepatocellular carcinoma (Hep G2) cells. Nature of the data set: Cell death and morphology after mRNA transfection. Type of data set: cell-based. An excerpt:
A representative graph of the apoptotic ability of the SQT-BH3 constructs is shown in FIG. 2, showing the cell killing capacity of the SQT-BH3 constructs in Hep G2 cells.

The test system of data set [3] is Hep3B cells. The experiment in a line: SQT-BH3 in combination with siMCL1 or sorafenib, YOYO-3. It counts as cell-based. The settings on record: 10 uM sorafenib tosylate, 24 hours after treatment.
The subject of the next data set is primary hepatocytes. Conditions: 10uM sorafenib tosylate, 24 hours after treatment.
The next data set concerns Hep3B SC tumors. Nature of the data set: Combination with sorafenib in SCID mice bearing Hep3B SC tumors. Type of data set: in vivo. Conditions: mmRNA with miR122 binding site, 1.5 mg/kg IV weekly alone, three weeks, end of study. As to the method: SCID mice bearing Hep3B SC tumors (tumor size range 140-227 mm^3; average=183 mm^3) were dosed over a three week period with a combination of 0.5% methyl cellulose daily and SQT IV at 1.5 mg/kg alone weekly (Days 1, 8 and 15; Group 1), Sorafenib (in 0.5% methyl cellulose) at 10 mg/kg orally daily alone (Group 2), mmRNA encoding SQT-PUMA-BH3 (comprising a miR122 binding site) weekly at 1.5 mg/kg IV alone (Group 3) or a combination of mmRNA encoding SQT-PUMA-BH3 (with miR122 binding site) at 1.5 mg/kg IV weekly with sorafenib at 10 mg/kg orally daily (Group 4; 10 animals per group).

Setting [4] is: TF1a-SCID mice, 3 mg/kg one time per week.

“Also recorded” adds a separate entry of the source.

T2 sequence (P10415 whole entry): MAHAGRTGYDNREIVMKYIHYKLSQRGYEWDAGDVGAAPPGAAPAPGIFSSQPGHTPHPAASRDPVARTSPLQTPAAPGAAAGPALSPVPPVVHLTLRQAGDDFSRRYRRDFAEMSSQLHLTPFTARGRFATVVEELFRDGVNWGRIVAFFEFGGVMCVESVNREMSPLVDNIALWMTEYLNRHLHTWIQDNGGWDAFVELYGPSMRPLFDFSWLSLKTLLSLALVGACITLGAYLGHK
T1 sequence (Q07820 whole entry): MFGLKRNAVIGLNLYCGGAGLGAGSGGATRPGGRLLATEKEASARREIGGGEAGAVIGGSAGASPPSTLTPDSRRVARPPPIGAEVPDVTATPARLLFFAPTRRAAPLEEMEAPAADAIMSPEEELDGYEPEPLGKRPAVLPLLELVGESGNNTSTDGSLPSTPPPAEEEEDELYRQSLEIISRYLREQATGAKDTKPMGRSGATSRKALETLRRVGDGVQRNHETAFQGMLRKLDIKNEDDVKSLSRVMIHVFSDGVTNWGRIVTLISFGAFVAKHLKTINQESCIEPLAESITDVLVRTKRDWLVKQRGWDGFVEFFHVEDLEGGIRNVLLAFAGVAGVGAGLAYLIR
Protocol for primary hepatocytes: Controls were an empty SQT construct (“SQT-dummy”), a non-targeting siRNA and PBS. For treatment of Hep3B cells, 20,000 Hep3B cells/well per plated in 96-well plates. At Day 1, some wells were transfected with siMCL1 (Dharmacon, ON-TARGETplus Human MCL1 (4170) siRNA-SMARTpool, # L-004501-00-0005) or non-targeting siRNA (ON-TARGETplus Non-targeting Control Pool, # D-001810-10-05). […] 24 hours after treatment, YOYO®-3 iodide (Life Technologies) viability dye was added to each well and cell death was measured on an IncuCyte ZOOM® using YOYO-3 fluorescence as a readout (=“Apoptosis”). For treatment of primary hepatocytes, 18,000 mouse hepatocytes (Gibco) were seeded in each well of a 96-well plate. At Day 1, some wells were transfected with siMCL1 (Dharmacon, SMARTpool: ON-TARGETplus Mc11 siRNA, # L-062229-00-0005) or non-targeting siRNA (ON-TARGETplus Non-targeting Control Pool, # D-001810-10-05). […] 24 hours after treatment, Caspase 3/7 reagent (EssenBio) apoptosis dye was added to each well and cell death was measured on an IncuCyte ZOOM® using the caspase 3/7 reagent fluorescence as a readout (=“Apoptosis”).

B1: SQT-PUMA-BH3: mRNA (SEQ ID NO: 49, FLAG) encoding SQT scaffold with PUMA BH3 domain in N-terminus, fully modified with 1-methyl-pseudouridine (nucleic acid)
chain: ATGATCCCAAGAGAAGAACAGTGGGCACGCGAAATTGGAGCTCAACTCAGACGGATGGCCGACGACCTGAACGCCCAGTACGAGCGGCGGGGACTCTCAGAAGCGAAGCCTGCCACCCCCGAAATCCAGGAAATCGTCGACAAGGTCAAGCCGCAGCTTGAGGAAAAGACCAACGAGACTTACGGAAAACTGGAGGCCGTGCAGTATAAGACCCAAGTGTTGGCCTCCACCAACTACTACATTAAGGTCCGCGCCGGCGATAACAAGTACATGCACCTGAAGGTGTTCAATGGTCCTCCGGGACAGAACGCGGACAGGGTGCTGACTGGCTACCAAGTGGACAAGAACAAGGACGACGAGCTGACGGGCTTCGACTACAAGGATGATGATGACAAA
modifications: FLAG tag, 1-methyl-pseudouridine; Synthetic SQT-PUMA-BH3 mRNA sequence with FLAG epitope tag
In the case of B1, in the data set with MCL-1, the “co-immunoprecipitation of MCL-1” value is “able to co-immunoprecipitate”. Moreover, the “tumor growth inhibition (TGI), BLI” value with systemic HEL xenografts (1.5 mg/kg IV at days 28 and 36, by days 40 and 43) is listed as “exhibited greater tumor growth inhibition (TGI) as compared to the mice treated with the PBS or GFP controls”. The “tumor growth inhibition (TGI), BLI” value in the data set with systemic HEL xenografts (3 mg/kg IV at days 28 and 36, at day 33) is reported as “already exhibited significantly greater tumor growth inhibition than the mice treated with the PBS or GFP controls”. Further, in the data set with BCL-2, the “interaction with BCL-2 by co-immunoprecipitation” value was “to a lesser extent”. In the data set on Hep3B cells [1], the “apoptosis and cell death (YOYO-3)” value was “both induced apoptosis and cell death; also recorded: kills Hep3B cells at higher concentrations”; the “efficacy and timing of cell killing, comparison” value is “showed a modest increase in both the efficacy and timing of cell killing compared to SQT-Bim-BH3”. Moreover, in the data set with systemic TF1a xenografts (setting [4]), the body weight result is listed as “did not cause significant body weight changes” and the “tolerability / treatment-related mortality” value was “well tolerated, resulting in no treatment-related mortality”. Also, the “systemic tumor growth (BLI)” value with systemic TF1a xenografts (TF1a-SCID, mRNA LNPs 3 mg/kg one time per week, cytarabine 2 mg/kg three times per week, IV, four weeks) is listed as “led to greater tumor growth inhibition than treatment with cytarabine”. Moreover, in data set [2], the cell death entry is “caused rapid cell death almost immediately following transfection; also recorded: underwent cell death almost immediately following transfection” and the cell morphology entry was “rounded-up cell morphology that is characteristic of apoptotic cells”. The “apoptosis (YOYO-3) in combination with either siMCL1 or sorafenib” value with Hep3B cells [3] is recorded as “led to a marked increase in apoptosis as compared to treatment with the SQT-BH3 construct in combination with non-targeting siRNA or PBS; also recorded: synergistic pro-apoptotic effect”. Also, the “apoptosis (caspase 3/7) in combination with siMCL1, sorafenib or controls” value in the data set on primary hepatocytes is reported as “did not lead to increased apoptosis as compared to treatment with the control SQT-dummy construct”. In the data set on Hep3B SC tumors, the “tumor growth inhibition (TGI)” value was determined as 28%.
